Patent US5958721

Biological target: rabbit MAP kinase kinase (MAPKK) (rabbit) (UniProt P29678)

MAPKK phosphorylation in S. pombe (32P-orthophosphate labelling, immunoprecipitation, phosphorimager): > 5 fold
Substance: ΔRaf-1 (human Raf-1 lacking the first 324 amino acids) (from UniProt P04049) (enzyme)
